# Results published in patent publication US20070178524A1, “Methods for determining and lowering caffeine concentration in fluids” (Washington University, priority 2004, published 2007).
# B1: VSA2: caffeine-specific llama single-domain heavy-chain (VHH) antibody fragment; SEQ ID NO: 1 with T7 and E tags, SEQ ID NO: 4 core (protein)
# VHH: GSHMASMTGGQQMGRGSEFAEVQLQASGGGLVQAGGSLRLSCTASGRTGTIYSMAWFRQAPGKEREFLATVGWSSGITYYMDSVKGRFTISRDNAKNSAYLQMNSLKPEDTAVYYCTATRAYSVGYDYWGQGTQVTVSHAAAGAPVPYPDPLEPR
# modifications: T7 and E tags; Camelidae antibody
# Key:
# [1] = Thermal reactivity at 70° C. with caffeine-biotinylated nonapeptide and streptavidin magnetic beads; type: binding
# Experimental: (§1) After caffeine specific clones had been identified, soluble VHH proteins not linked to phage particles were expressed (Harrison, supra). Binding activity of the VHH proteins was assessed in a Standard Caffeine-ELISA. Microtiter plates were coated with caffeine and blocked as above (Coating and Blocking Steps). The VHH proteins serially diluted in 20 mM Tris. pH 7.2 containing 150 mM NaCl and 0.1% Tween (TBS/BSA/Tween) were added and incubated for 90 min at 37° C. (Primary Antibody Step). Bound VHH fragments were detected by the addition of a 1/1000 dilution in TBS/BSA/Tween of mouse-anti-E Tag antibody (Amersham Bioscience Corporation) for 90 min at 37° C. (Secondary Antibody Step), followed by the addition of a 1/1000 dilution in TBS/BSA/Tween of goat-anti-mouse IgG-alkaline phosphatase conjugate for 90 min at 37° C. (Reporter Antibody Step), before the addition of para-nitrophenyl phosphate substrate (p-npp) (Sigma Aldrich) (Substrate Step). The wells were washed and monitored at A405 as above. The Standard ELISA assay was used to assess thermal stability and reactivity of VSA2 (Example 9, FIGS. 5 and 6).
# The thermal reactivity of VSA2 was also determined. […] The amount of unbound VSA2 remaining in the supernatant was determined in a Standard Caffeine-ELISA.
# [2] = Competition Caffeine-ELISA, competition by caffeine; type: binding; details: competitors caffeine, theophylline, theobromine; FIG. 4
# Experimental: as §1, with “The Standard ELISA assay was used to assess thermal stability and reactivity of VSA2 (Example 9, FIGS. 5 and 6).” left out
# Binding of VHH proteins to unconjugated caffeine was also assessed by a competition assay (Competition Caffeine-ELISA) in which 0-800 μg/mL caffeine (Sigma-Aldrich) was added as a competitor along with the VHH during the Primary Antibody Step of the Standard Caffeine-ELISA. […] A405 readings with and without competitor were compared. […]
# [3] = Thermal stability: Standard Caffeine-ELISA after heat pre-incubation; type: binding
# Experimental: as §1
# The thermal stability of VSA2 was determined and compared to that of two mouse anti-caffeine monoclonal antibodies (Catalog No. G45110 M and G45111 M, U.S. Biological, Swampscott, Mass.). Antibody solutions were prepared in TBS containing 0.1% Tween and incubated for 20 min at temperatures ranging from RT to 90° C. The solutions were re-equilibrated to RT before measuring caffeine binding activity. For VSA2, the Standard Caffeine-ELISA protocol was followed. For the commercial mouse monoclonal antibodies, the Secondary Antibody Step was skipped.
# [4] = Competition Caffeine-ELISA, cross-reactivity with theobromine; type: binding; details: theobromine at concentrations up to 250 μg/mL
# Experimental: (§2) Binding of VHH proteins to unconjugated caffeine was also assessed by a competition assay (Competition Caffeine-ELISA) in which 0-800 μg/mL caffeine (Sigma-Aldrich) was added as a competitor along with the VHH during the Primary Antibody Step of the Standard Caffeine-ELISA. All other steps are the same as for the Standard Caffeine ELISA. A405 readings with and without competitor were compared. The competition ELISA was used to assess cross-reactivity of theophylline and theobromine (Example 9, FIG. 4) and also the amount of caffeine in various beverages (Example 9, FIG. 7, Table 3).
# (§3) Two additional methylxanthines with similar structure to caffeine, theobromine and theophylline, were tested for cross-reactivity with VSA2. The Competition Caffeine-ELISA described above was run using theobromine and theophylline (Sigma-Aldrich) as competitors at concentrations up to 250 μg/mL and compared to competition by caffeine.
# (§4) The results of the competition caffeine-ELISA run with increasing concentrations of caffeine (-▪-), theophylline (. .●. .) or theobromine (- -▴- -) is shown in FIG. 4. The response (B) was compared to that of no competitor (Bo).
# [5] = Removal of caffeine from solution by VSA2 NiNTA agarose column
# Experimental: (§5) The ability of VSA2 to remove caffeine from solution was assessed. VSA2 still containing the His Tag (prior to thrombin cleavage) was coupled to a NiNTA agarose column via its N-terminus His Tag. Approximately 1 mg of antibody was bound to 1 ml of swollen agarose. One mg of a different unrelated protein which also contained a Histag was bound to a NiNTA agarose column as a control. Five μg of caffeine in 0.5 ml of PBS was passed over the column and then washed with 4 ml of PBS and 0.5 ml fractions collected. The amount of caffeine in the wash solutions was determined by absorbance at 273 nm and converted to amount of caffeine via comparison with the absorbance of standards (0, 2.5, 5, 10 ug).
# The caffeine bound to the column was eluted with 8 M urea, 100 mM sodium phosphate, 10 mM tris, pH 6.3 and 4.1 ug of caffeine came off the column which was in excellent agreement with the 4.2 ug which had originally bound to the column. No caffeine was eluted from the control column.
# The ability of the VSA2 column to remove caffeine from solution was confirmed using HPLC (method previously described) to analyze the original caffeine solution put on the column and the fractions from the column washes. […] The HPLC procedure could not be used to measure the caffeine eluted from the column due to the presence of 8 M urea.
# [6] = Removal of caffeine from decaffeinated coffee by VSA2 column; details: HPLC
# Experimental: as §5
# The ability of VSA2 to remove caffeine from “decaffeinated” coffee was also assessed using brewed decaffeinated coffee (Seattle's Best™). By HPLC analysis, this batch of decaffeinated coffee had 30.8 μg/mL of caffeine. One hundred and sixty seven μL (5.15 μg caffeine) of the decaffeinated coffee was placed on the column and then the column washed as previously described and caffeine measured by HPLC in the 0.5 ml aliquots. 3.9 μg of caffeine was removed from the first decaffeinated coffee aliquot placed on the column and 0.5 μg from the second 167 μl aliquot. The total of 4.4 μg of caffeine removed by the column was very similar to the 4.2 μg removed by the column when caffeine was in a simple solution.
# [7] = Competition Caffeine-ELISA, cross-reactivity with theophylline; type: binding
# Experimental: as §2, §3, §4
molecule,measurement,setting,value
B1,VHH remaining in solution,[1]; 20 μg/mL caffeine-biotinylated-nonapeptide,56.8%
same,VHH remaining in solution,[1]; 200 μg/mL caffeine-biotinylated-nonapeptide,20.1%
same,specificity for caffeine in competition caffeine-ELISA (B/Bo),[2],highly specific for caffeine
same,effect of heat pre-incubation on caffeine binding,"[3]; 20 min at temperatures of 60° C. and below, re-equilibrated to RT",no effect
same,activity retained after heat pretreatment,"[3]; 20 min at temperatures up to 90° C., re-equilibrated to RT",greater than 90%
same,heat stability compared among four representative clones,"[3]; purified soluble antibodies, 2 llama and 2 camel clones",greatest degree of heat stability
same,competition by theobromine,[4],essentially no competition
same,caffeine bound to the column,[5]; HPLC analysis,3.8 µg
same,caffeine eluted from the column,"[5]; eluted with 8 M urea, 100 mM sodium phosphate, 10 mM tris, pH 6.3",4.1 µg
same,caffeine bound to the column,"[5]; first 5 μg caffeine aliquot, UV method",3.6 µg
same,caffeine recovered in the washing solutions,"[5]; five μg caffeine in PBS added, about 1 mg His-tagged VSA2 on 1 ml agarose, absorbance at 273 nm, average of duplicate",1.4 µg
same,additional bound caffeine,"[5]; second 5 ug caffeine aliquot, UV method",0.6 µg
same,total caffeine originally bound to the column,"[5]; two 5 ug aliquots, UV method",4.2 µg
same,caffeine removed,[6]; first 167 μL decaffeinated coffee aliquot (5.15 μg caffeine),3.9 µg
same,caffeine removed,[6]; second 167 μl decaffeinated coffee aliquot,0.5 µg
same,total caffeine removed by the column,[6]; two decaffeinated coffee aliquots,4.4 µg
same,amount of theophylline relative to caffeine needed for equivalent competition,[7],approximately fourteen times as much theophylline as caffeine
same,cross-reactivity with theophylline,[7],7.4%
same,competition by theophylline,[7]; theophylline at 250 μg/mL,some competition
